Reference: US20220073608A1

How the values were obtained:
[1] = biological target: hSEMA4D ECD-His (His-tagged human SEMA4D protein extracellular domain, Met22-Arg734) (human) (UniProt Q92854); test: ELISA, coated hSEMA4D ECD-His; Ab 6.67 nM
[2] = biological target: hSEMA4D ECD-His (His-tagged human SEMA4D protein extracellular domain, Met22-Arg734) (human) (UniProt Q92854); test: ELISA, coated hSEMA4D ECD-His; Ab 0.0533 nM
[3] = biological target: hSEMA4D ECD-His (His-tagged human SEMA4D protein extracellular domain, Met22-Arg734) (human) (UniProt Q92854); test: ELISA, coated hSEMA4D ECD-His; Ab 0.000085 nM
[4] = biological target: hSEMA4D ECD-His (His-tagged human SEMA4D protein extracellular domain, Met22-Arg734) (human) (UniProt Q92854); test: ELISA, coated hSEMA4D ECD-His; Ab 0.267 nM
[5] = biological target: monkey SEMA4D, full length, on CHO-K1 cells (CHO-K1 cSEMA4D) (monkey); test: FACS, CHO-K1 cSEMA4D cells; Ab 66.7 nM
[6] = biological target: hSEMA4D ECD-His (His-tagged human SEMA4D protein extracellular domain, Met22-Arg734) (human) (UniProt Q92854); test: ELISA, coated hSEMA4D ECD-His; Ab 0.00427 nM
[7] = biological target: hSEMA4D ECD-His (His-tagged human SEMA4D protein extracellular domain, Met22-Arg734) (human) (UniProt Q92854); test: ELISA, coated hSEMA4D ECD-His; Ab 0.00213 nM
[8] = biological target: hSEMA4D ECD-His (His-tagged human SEMA4D protein extracellular domain, Met22-Arg734) (human) (UniProt Q92854); test: ELISA, coated hSEMA4D ECD-His; Ab 0.0107 nM
[9] = biological target: hSEMA4D ECD-His (His-tagged human SEMA4D protein extracellular domain, Met22-Arg734) (human) (UniProt Q92854); test: ELISA, coated hSEMA4D ECD-His; Ab 1.33 nM
[10] = biological target: hSEMA4D ECD-His (His-tagged human SEMA4D protein extracellular domain, Met22-Arg734) (human) (UniProt Q92854); test: ELISA, coated hSEMA4D ECD-His; Ab 0.0213 nM
[11] = biological target: hSEMA4D ECD-His (His-tagged human SEMA4D protein extracellular domain, Met22-Arg734) (human) (UniProt Q92854); test: ELISA, coated hSEMA4D ECD-His; Ab 0.533 nM
[12] = biological target: hSEMA4D ECD-His (His-tagged human SEMA4D protein extracellular domain, Met22-Arg734) (human) (UniProt Q92854); test: ELISA, coated hSEMA4D ECD-His; Ab 2.67 nM
[13] = biological target: hSEMA4D ECD-His (His-tagged human SEMA4D protein extracellular domain, Met22-Arg734) (human) (UniProt Q92854); test: ELISA, coated hSEMA4D ECD-His; Ab 0.00085 nM
[14] = biological target: hSEMA4D ECD-His (His-tagged human SEMA4D protein extracellular domain, Met22-Arg734) (human) (UniProt Q92854); test: ELISA, coated hSEMA4D ECD-His; Ab 13.3 nM
[15] = biological target: hSEMA4D ECD-His (His-tagged human SEMA4D protein extracellular domain, Met22-Arg734) (human) (UniProt Q92854); test: ELISA, coated hSEMA4D ECD-His; Ab 0.0427 nM
[16] = biological target: hSEMA4D ECD-His (His-tagged human SEMA4D protein extracellular domain, Met22-Arg734) (human) (UniProt Q92854); test: ELISA, coated hSEMA4D ECD-His; Ab 0.107 nM

Row | Substance | OD450 nm [1] | OD450 nm [2] | OD450 nm [3] | OD450 nm [4] | MFI [5] | OD450 nm [6] | OD450 nm [7] | OD450 nm [8] | OD450 nm [9] | OD450 nm [10] | OD450 nm [11] | OD450 nm [12] | OD450 nm [13] | OD450 nm [14] | OD450 nm [15] | OD450 nm [16]
1 | Mouse IgG control (antibody) | 0.533 | 0.0805 | 0.0686 | 0.0791 | 339 | 0.0789 | 0.0718 | 0.0814 | 0.264 | – | – | – | – | – | – | –
2 | Human IgG control (antibody) | – | – | – | – | – | – | – | – | – | 0.0714 | 0.0748 | 0.074 | 0.0781 | 0.0766 | 0.0754 | 0.0717
